Measured values: the supplement of paper PMC7877785
± gives the uncertainty stated by the source.

Test: self-splicing fitness, log relative to wild type (ln ratio); higher = more splicing; Tetrahymena group I intron in knt gene, E. coli kanamycin selection, DiMSum; sequences stand for … in CUCUCU…GGAGGGAAAAGUUAUCAGGCAUGCACCUGGUAGCUAGUCUUUAAACCAAUAGAUUGCAUCGGUUUAAAAGGCAAGACCGUCAAAUUGCGGGAAAGGGGUCAACAGCCGUUCAGUACCAAGUCUCAGGGGAAACUUUGAGAUGGCCUUGCAAAGGGUAUGGUAAUAAGCUGACGGACAUGGUCCUAACCACGCAGCCAAGUCCUAAGUCAACAGAUCUUCUGUUGAUAUGGAUGCAGUUCACAGACUAAAUGUCGGUCGGGGAAGAUGUAUUCUUCUCAUAAGAUAUAGUCGGACCUCUCCUUAAUGGGAGCUAGCGGAUGAAGUGAUGCAACACUGGAGCCGCUGGGAACUAAUUUGUAUGCGAAAGUAUAUUGAUUAGUUUUGGAGUACUCGUGGUCG
Procedure, shortened: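 Library with all eight P1ex-region intron nucleotides randomised, intron inside the knt kanamycin-resistance gene on pET-22b(+), in E. coli BL21(DE3). Cells grew overnight at 37°C or 30°C on LB agar with or without 25 μg/mL kanamycin (plus 100 μg/mL carbenicillin, 50 μM IPTG, 0.2% rhamnose), in six replicate transformations. Pooled colonies were amplicon-sequenced on Illumina HiSeq 2500. DiMSum fitness is the error-weighted combination of wild-type-normalised replicate fold changes, kanamycin versus none.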

Sequence | self-splicing fitness (ln) (30 °C) | self-splicing fitness (ln) (37 °C)
UCUCAGCAAUAUUACGUCCU | -2.36 ± 0.14 | -2.57 ± 0.24
UCUCAGCAAUAUUACGUGCC | -3.38 ± 0.26 | -1.71 ± 0.23
UCUCAGCAAUAUUACGUUCU | -3.49 ± 0.16 | -1.86 ± 0.17
UCUGAGCAAUAUUACGAGCC | -1.65 ± 0.22 | –
UCUGAGCAAUAUUACGCACG | -3.08 ± 0.33 | –
UCUGAGCAAUAUUACGCAGC | -2.75 ± 0.42 | –
UCUGAGCAAUAUUACGCCAC | -2.41 ± 0.49 | –
UCUGAGCAAUAUUACGCCUG | -3.02 ± 0.18 | -2.18 ± 0.2
UCUGAGCAAUAUUACGCGAA | – | -1.8 ± 0.25
UCUGAGCAAUAUUACGCGAG | -3.09 ± 0.2 | -2.28 ± 0.24
UCUGAGCAAUAUUACGCUGU | -2 ± 0.23 | -1.07 ± 0.19
UCUGAGCAAUAUUACGGAAC | -4.04 ± 0.39 | -3.05 ± 0.28
UCUGAGCAAUAUUACGGAAG | -4.27 ± 0.2 | -3.07 ± 0.23
UCUGAGCAAUAUUACGGCAG | -1.8 ± 0.097 | -0.992 ± 0.12
UCUGAGCAAUAUUACGGCGC | -3.06 ± 0.29 | -2.02 ± 0.32
UCUGAGCAAUAUUACGGUCU | -2.46 ± 0.21 | -2.96 ± 0.37
UCUGAGCAAUAUUACGGUGC | -4.39 ± 0.39 | -2.45 ± 0.25
UCUGAGCAAUAUUACGUAAG | -0.697 ± 0.11 | -0.863 ± 0.19
UCUGAGCAAUAUUACGUAUU | -4.55 ± 0.25 | -3.08 ± 0.25
UCUGAGCAAUAUUACGUCGU | -3.79 ± 0.29 | -1.91 ± 0.25
UCUUAGCAAUAUUACGACAC | -2.77 ± 0.46 | -1.65 ± 0.22
UCUUAGCAAUAUUACGACCA | -1.32 ± 0.48 | –
UCUUAGCAAUAUUACGACGC | -2.07 ± 0.28 | -1.02 ± 0.23
UCUUAGCAAUAUUACGACUC | – | -1.03 ± 0.5
UCUUAGCAAUAUUACGCACG | -1.56 ± 0.29 | -1.47 ± 0.34
UCUUAGCAAUAUUACGGCCA | -2.31 ± 0.38 | –
UCUUAGCAAUAUUACGGGGA | -1.1 ± 0.15 | -1 ± 0.16

Sequence | self-splicing fitness (ln) (30 °C) | self-splicing fitness (ln) (37 °C)
UCUUAGCAAUAUUACGGUGG | -1.18 ± 0.13 | -1.2 ± 0.16
UCUUAGCAAUAUUACGUUCU | – | -2.75 ± 0.21
UGAAAGCAAUAUUACGAAAU | -3.67 ± 0.2 | -1.95 ± 0.18
UGAAAGCAAUAUUACGACAG | -0.875 ± 0.1 | -0.652 ± 0.13
UGAAAGCAAUAUUACGACAU | -1.26 ± 0.013 | -0.435 ± 0.032
UGAAAGCAAUAUUACGAGAA | -2.32 ± 0.23 | -1.22 ± 0.15
UGAAAGCAAUAUUACGAGGC | -3.66 ± 0.28 | -2.36 ± 0.21
UGAAAGCAAUAUUACGAUAC | -2.87 ± 0.19 | -2.8 ± 0.33
UGAAAGCAAUAUUACGAUGA | -0.217 ± 0.088 | -0.415 ± 0.1
UGAAAGCAAUAUUACGAUGU | -3.04 ± 0.2 | -1.81 ± 0.21
UGAAAGCAAUAUUACGAUUU | -1.08 ± 0.06 | -0.463 ± 0.077
UGAAAGCAAUAUUACGCACG | -1.4 ± 0.11 | 0.111 ± 0.13
UGAAAGCAAUAUUACGCAGG | -2.65 ± 0.17 | -1.42 ± 0.2
UGAAAGCAAUAUUACGCCCU | -0.195 ± 0.11 | 0.295 ± 0.15
UGAAAGCAAUAUUACGGCUG | 0.281 ± 0.088 | 0.316 ± 0.11
UGAAAGCAAUAUUACGGGAU | -2.6 ± 0.18 | -3.48 ± 0.39
UGAAAGCAAUAUUACGGGUC | – | -2.71 ± 0.25
UGAAAGCAAUAUUACGUACA | -0.776 ± 0.044 | 0.0429 ± 0.066
UGAAAGCAAUAUUACGUACC | -1.36 ± 0.12 | -1.61 ± 0.17
UGAAAGCAAUAUUACGUAUA | -1.56 ± 0.13 | -1.28 ± 0.12
UGAAAGCAAUAUUACGUCCA | 0.114 ± 0.088 | -0.497 ± 0.11
UGAAAGCAAUAUUACGUGAG | -0.356 ± 0.06 | -0.158 ± 0.084
UGAAAGCAAUAUUACGUGCU | -2.79 ± 0.12 | -1.32 ± 0.12
UGAAAGCAAUAUUACGUUAC | -3.44 ± 0.25 | -2.35 ± 0.21
UGAAAGCAAUAUUACGUUUC | -3.14 ± 0.34 | -2.03 ± 0.28
UGACAGCAAUAUUACGAAGC | -3.56 ± 0.37 | -3.61 ± 0.39
UGACAGCAAUAUUACGAAUU | -2.9 ± 0.2 | -1.53 ± 0.21

Sequence | self-splicing fitness (ln) (30 °C) | self-splicing fitness (ln) (37 °C)
UGACAGCAAUAUUACGACUU | -0.452 ± 0.068 | 0.389 ± 0.091
UGACAGCAAUAUUACGAGCG | -0.264 ± 0.067 | -0.0667 ± 0.079
UGACAGCAAUAUUACGAGUU | -3.89 ± 0.2 | -2.86 ± 0.19
UGACAGCAAUAUUACGAUAC | -3.36 ± 0.22 | -1.61 ± 0.19
UGACAGCAAUAUUACGAUCG | 0.0362 ± 0.077 | 0.761 ± 0.1
UGACAGCAAUAUUACGAUUA | -0.338 ± 0.059 | 0.419 ± 0.066
UGACAGCAAUAUUACGCACU | 0.279 ± 0.051 | -0.101 ± 0.059
UGACAGCAAUAUUACGCAUC | -4 ± 0.27 | -1.28 ± 0.2
UGACAGCAAUAUUACGCCCC | -0.414 ± 0.17 | -0.391 ± 0.26
UGACAGCAAUAUUACGCCGU | -2.54 ± 0.14 | -1.85 ± 0.15
UGACAGCAAUAUUACGCGCU | -0.554 ± 0.086 | -0.657 ± 0.099
UGACAGCAAUAUUACGCUCC | -1.28 ± 0.13 | -0.275 ± 0.14
UGACAGCAAUAUUACGCUGA | -2.69 ± 0.17 | -2.08 ± 0.24
UGACAGCAAUAUUACGGAAA | -2.03 ± 0.12 | -1.75 ± 0.14
UGACAGCAAUAUUACGGAAU | -4.15 ± 0.28 | -1.55 ± 0.17
UGACAGCAAUAUUACGGACU | -0.289 ± 0.063 | 0.203 ± 0.078
UGACAGCAAUAUUACGGCCA | -0.00432 ± 0.11 | 0.373 ± 0.13
UGACAGCAAUAUUACGGCCC | -0.701 ± 0.12 | -0.967 ± 0.18
UGACAGCAAUAUUACGGCUU | -0.693 ± 0.075 | -0.053 ± 0.092
UGACAGCAAUAUUACGGUCC | -0.746 ± 0.18 | -0.15 ± 0.23
UGACAGCAAUAUUACGUACG | -0.78 ± 0.071 | -0.016 ± 0.083
UGACAGCAAUAUUACGUAUU | -3.43 ± 0.15 | -1.78 ± 0.11
UGACAGCAAUAUUACGUCGC | – | -1.64 ± 0.45
UGACAGCAAUAUUACGUCUG | -0.69 ± 0.072 | -0.119 ± 0.093
UGACAGCAAUAUUACGUGAC | -2.64 ± 0.12 | -1.37 ± 0.19
